From the DeepSol protein solubility set

Assay: soluble on expression in E. coli; label from the status in PepcDB or PDB records

Sequence | soluble on expression in E. coli
MRNNQPVTQKEVTYPPHFNLLSTTTLSSHIKYASKEFCDVAGYTLDELVNQPHNMVRHPDMPPEAFKDMWEHLKAGKSWMGMVKNRCKNGDHYWVDAFASPIKENGK | not soluble
MHHHHHHSSGRENLYFQGPKCIQCGQYLDDPDLKYGQHPPDAVDEPQMLTNEKLSIFDANESGFESYEALPQHKLTCFSVYCKHGHLCPIDTGLIEKNIELFFSGSAKPIYDDDPSLEGGVNGKNLGPINEWWITGFDGGEKALIGFSTSFAEYILMDPSPEYAPIFGLMQEKIYISKIVVEFLQSNSDSTYEDLINKIETTVPPSGLNLNRFTEDSLLRHAQFVVEQVESYDEAGDSDEQPIFLTPCMRDLIKLAGVTLGQRRAQAR | soluble
SLEKELKVITIDELKKYIRNNEEDKIEEVDVVTSATCGIMSGTAGIFHIPFNEVFKRAEEIYLNDIKGVVGICPNEFLGKVDAIFYGEVGFLFKDLVKGKVVEAKAISEGKIYKNEITIDDLPTAKMIGTRMAFKNYTAITNLSDEEVNTIFHRLPLKKGEASFSGCGMLNPLENMVIKDEKDVVGKKALLNGAEAIILGFGTRASIEKPNLMMSADMKDMDAYYLGGFVTSNGIEIYNTIAVPIKVDEHKEALKKLDKDITLPLVNIFGREIIDIGSYAEVWENVDLRPKIYQDKCKNCRECLVEKYCPTFAIKRENGKIKITEDCFGCGVCNICPYGVFKTKLGSVCGIPITCRQSDRKRALKLAKELKKKIERGEFKI | not soluble
MGSDKIHHHHHHMTQKTLPPLNWLRAFEVSARYLNFTHAAEELHLTQGAVSQQIRHLESQLGVALFKRLPRGLGLTEEGQSYLPVVQDAISRLAVGTNEIFGQRQRRPLKVRGSLSFLHFWLAPRLADFRRSHPQVDIRYISNLWVKELDAEDDLEIRWGSGQWAGVEAQRLTRDMLVPVCAPALLAGCPLREPRDLARVPLLHVLGYEEGWGYWLERVGADQVDSSSGLQFDTLVSTLRMAELGLGVALARSSLVEDLLQEGRLVAPFAQRIEASESFFLVRGLGEALSPDAQAFSHWLVAMAHR | not soluble
GSPGISGGGGGILMDVNVGLSRLQSQAGAPVGTKGSNTRLAAKQRETLQAYDYLCRVDEAKKWIEECLGTDLGPTSTFEQSLRNGVVLALLVQKFQPDKLIKIFYSNELQFRHSDNINKFLDFIHGIGLPEIFHFELTDIYEGKNLPKVIYCIHALSYFLSMQDLAPPLIKSDENLSFTDEDVSIIVRRLRQSNVILPNFKAL | soluble
MGSDKIHHHHHHMAGSVIHLDENAGPPATHGLVVGVGKYPHLEGGEAPVADSDGMRQLSSPPLSARAFARWLLAEYHDPQRPLGSVSLLLSEEQPAPFVNPRTGTAHEVEVATIDNILAAVTQWYDRGDSHVDNRLVFYFCGHGISQGDDMALLAADIFADPHNPLNGALDFAGLMNGLKRCKASQQVFFLDACRSNSDVLIEASGTRFAGRTPLGAGARPLDLPRRFHIPYYATLSGDQSHARPGQVSLFTEALLKSLAGAASDDPEGDWRVNTAHLLEAIDHFMHQPCFAGMVAGVQVPAVGELPVFVLHQLAGPPVVPVYVGCDPAQDNAEAEFVCLEGGRERLRRTLNDVDDTDPESEWAIELSFGDYDFEARLGERDVRTKTITVRPVFRRVHLVKS | not soluble
MTALSQLYPQPLWQWFEQICAIPHPSKHEQSLSQHIQAWAKQKQLDVVEDAVGNVIIRKAATPGMEDRKVVVIQAHIDMVPQKNADKVHDFIKDPIEAYVDGDWVKAKGTTLGADNGIGMASALAILGSDDIKHGPLEVLLTIDEEAGMTGAFGLQAGMLNAEILINTDSEQEGEIYMGCAGGVDAQITLPMVWQASEQSYASFSLHLSGLKGGHSGVNIHLGRGNANKILARFLFENADELALELTQFTGGSLRNAIPREANISFMLPAENIDALKEKVHAFEALMRAELAIADPDLRLVLSNIATPKRVMSENSQNTLIDLLHVCPNGVMRMSDEVTGVTETSLNVGVISTNDEEVGILCLIRSLIDSGRSQVEGMLNALTNLAGADVEFSGAYPGWKPDNTSPVMAIVRETYESIYHKEPVIMVIHAGLECGLFKKPYPEMDMVSIGPTIRYPHGPDEMVNITTVGQYWDLLVAVLERIPVKALEHHHHHH | not soluble
MSLKNIVFDFGGVIVDIDRDKAVQAFIKLGLADADTRLDKYHQTGIFQELEEGKLSADEFRKQLGDLCGRELTMEETKQAWLGFFNEVDLRKLDYILGLRKSYHVYLLSNTNPFVMSWACSPEFSSEGKPLNDYCDKLYLSYQLGHTKPAPEIFDFMIKDSHVIPSETLFVDDGSSNIHIGKELGFETFQPENGADWRQELTVILNSEGHHHHHH | soluble
MGSDKIHHHHHHMGDLTADVLVIGGGTAGFGAAVAAGRLGLDVVLLEAGTKVGGVMAFCPGMPWGAAYPQDESIGGLMQELTDRLMGMDPPMAEKRPCTLENFGPEIQYDHDAATTMMFEMLEEAGVRVFLGAVAFAPVMEGNRIAAVEFFDRRCPQRIAAKIVIDCSGDGDISAKAGVPFTLGDGQGNMMAVTLSFFMEGADWDRVFAENDPYFRRYAAKGIAEGRLHPHLAQLYLMKGFHPGTVFCNSVAIRGVDGTDPADVTRATQEGRRRCLQLAQFLRADVPGFEAAHMSQLGPTVGVRETRKLEGMYKVTGADLAAGTKFADGIVACDNPIDDVMRTSDQMTHDAMVERGGYYTIPFRSLLPKAVANLMFAGRILSADLVAFASVRGMPQCMAMGQATGTAAHLAIRDGAPVQQVDRAELVKLLSEQGVSRLLS | not soluble
SKSFNYSVSFNLSDYQGTVLKYSNPKGLIYDYYVGKKMGTIWGYTTDHIMTDPAEAKAINDSGVQNKFGGDWVVGDIKYVNLDDDPNINDGNQTLEDHGDLSIIGNDTPRYNFGFGFNADWNGIDFSMFLQGTMKRDLWLEGPVAFGLGGGQWGSNVWKNTLDCWREDGSNPDPWLPRLYLWSTSKNLQKQTRYMDTGAYCRLKNIQLGYSLPGAIINKVGLEKVRIYFSGDNLLTFSGINENFDPEAPWGGAYPISKSISFGVNVTF | not soluble
MGSDKIHHHHHHACTDDSNDVVATTSEVIEQAEVPFSVVLKAMNSDGNDITTKGEVNGATLFVFDQNNDFFEQINVNKSTILSRRAIDINCPNSNDITVIAWSGINSGNEEISNMSKANIISDLQVSLKENNGIANIPSDLFYGQVTLHKNSSTKSTVSNELQIIRKTSIFQLSTKGLIKYLGSNAGNFEYRIKNTKSSLDYNGNPTGEEVEFAFPASFDEKGNLTTETQAIFPAQNITVELYKDGNLIFSSEKDKNGELFAATPGKRTEITFKYSGEVSANITIADWATVIQHITMN | not soluble
MTATETVRVRFCPSPTGTPHVGLVRTALFNWAYARHTGGTFVFRIEDTDAQRDSEESYLALLDALRWLGLDWDEGPEVGGPYGPYRQSQRAEIYRDVLARLLAAGEAYHAFSTPEEVEARHVAAGRNPKLGYDNFDRHLTDAQRAAYLAEGRQPVVRLRMPDDDLAWNDLVRGPVTFAAGSVPDFALTRASGDPLYTLVNPCDDALMKITHVLRGEDLLPSTPRQLALHQALIRIGVAERIPKFAHLPTVLGEGTKKLSKRDPQSNLFAHRDRGFIPEGLLNYLALLGWSIADDHDLFGLDEMVAAFDVADVNSSPARFDQKKADALNAEHIRMLDVGDFTVRLRDHLDTHGHHIALDEAAFAAAAELVQTRIVVLGDAWELLKFFNDDQYVIDPKAAAKELGPDGAAVLDAALAALTSVTDWTAPLIEAALKDALIEGLALKPRKAFSPIRVAATGTTVSPPLFESLELLGRDRSMQRLRAARQLVGHALEHHHHHH | soluble
GMTRRIAICAPSTPFTREDSARVIALAAAEFPDLSLSFHEQCFASEGHFAGSDALRLSAFLECANDDAFEAVWFVRGGYGANRIAEDALARLGRAASAKQYLGYSDAGTLLAALYAHRIGRSVHAPMPVDIRRPEGESAVRRTLGWLAGAREGLEPTLGAGAPAVAFNLMTLAMLCGTRLLPDLSGHVVMIEEVAEHHYAVDRLLFHVTSCLADAGIAGLRLGRVSDVPENDRPFGCSVEEMARHWCHRAGIAFLGTADIGHDVDNRIVPFGLA | soluble
MGSDKIHHHHHHMKKLVATAPRVAALVEYEDRAILANEVKIRVRFGAPKHGTEVVDFRAASPFIDEDFNGEWQMFTPRPADAPRGIEFGKFQLGNMVVGDIIECGSDVTDYAVGDSVCGYGPLSETVIINAVNNYKLRKMPQGSSWKNAVCYDPAQFAMSGVRDANVRVGDFVVVVGLGAIGQIAIQLAKRAGASVVIGVDPIAHRCDIARRHGADFCLNPIGTDVGKEIKTLTGKQGADVIIETSGYADALQSALRGLAYGGTISYVAFAKPFAEGFNLGREAHFNNAKIVFSRACSEPNPDYPRWSRKRIEETCWELLMNGYLNCEDLIDPVVTFANSPESYMQYVDQHPEQSIKMGVTF | not soluble
MRGSHHHHHHGSPGLQEFMAATGANAEKAESHNDCPVRLLNPNIAKMKEDILYHFNLTTSRHNFPALFGDVKFVCVGGSPSRMKAFIRCVGAELGLDCPGRDYPNICAGTDRYAMYKVGPVLSVSHGMGIPSISIMLHELIKLLYYARCSNVTIIRIGTSGGIGLEPGTVVITEQAVDTCFKAEFEQIVLGKRVIRKTDLNKKLVQELLLCSAELSEFTTVVGNTMCTLDFYEGQGRLDGALCSYTEKDKQAYLEAAYAAGVRNIEMESSVFAAMCSACGLQAAVVCVTLLNRLEGDQISSPRNVLSEYQQRPQRLVSYFIKKKLSKA | soluble
MGSDKIHHHHHHMRKILLPYPAGCATGTFVRRVKRFSVEMTRDGESVWVHSNNSGSMLGLLRPGATMLASPAANPDRKLAWTHEAMRCHGDGPQGFWVGVNTSVPNRMVEAAFHAGRLPWAQGYDTFRRERKRGDSRLDARLDGPGLPTLWVECKNVTMVEDDVACFPDAVTERGSKHLREMMDIVSRGERAAMFYLVQRPDGLCFGPADVIDPQYAALFWEAVDAGVEMYPHRGIVSPVGIDLSGVLPLTRCR | not soluble
MQVLHVCSEMFPLLKTGGLADVIGALPAAQIADGVDARVLLPAFPDIRRGVTDAQVVSRRDTFAGHITLLFGHYNGVGIYLIDAPHLYDRPGSPYHDTNLFAYTDNVLRFALLGWVGAEMASGLDPFWRPDVVHAHDWHAGLAPAYLAARGRPAKSVFTVHNLAYQGMFYAHHMNDIQLPWSFFNIHGLEFNGQISFLKAGLYYADHITAVSPTYAREITEPQFAYGMEGLLQQRHREGRLSGVLNGVDEKIWSPETDLLLASRYTRDTLEDKAENKRQLQIAMGLKVDDKVPLFAVVSRLTSQKGLDLVLEALPGLLEQGGQLALLGAGDPVLQEGFLAAAAEYPGQVGVQIGYHEAFSHRIMGGADVILVPSRFEPCGLTQLYGLKYGTLPLVRRTGGLADTVSDCSLENLADGVASGFVFEDSNAWSLLRAIRRAFVLWSRPSLWRFVQRQAMAMDFSWQVAAKSYRELYYRLK | not soluble
MGSDKIHHHHHHMLLGRTANGLYWMNRYIERAENMARLVDAGLRMALTRTQNASEEWNSVLLSAGSDVAFKQKYSDYTAADVADFLLRDTSNPSSTMSSIETARNNARMVRTALTRETWESINEAWMSLKRMLARPIDERDLPSVLDAIKRETALIRGSFYGTMLRNEIFDFSQLGTYVERADNTARILDVKYYVLLPSISWVGSTLDNYQWESILRSVSAHRSYRWVYDADYKPTNIADYLILNVRMPRSLTFCYRFLSEHLKFLSDDYGERHACHATAEKTQAMLRAGSIKDIFDAGLHEFLAGFIRDNTRLGDEIAQDYRFY | not soluble
EPMQVVKQRRDAALNALVSGVPFIRFLNITFDRRGDELTGVLNFDDKLIGNPFLPAIHGGVTAAFLEVTAVITLSWAHLFERIESGDLAPEDILTDENMRFPKTIDFTIDYLRSGLPRDAYARAYISRAGRRYASVRVEAWQDHHDKLYAQGTGHFLMP | not soluble
